Source: US20260070975A1 (SANTA ANA BIO, published 2026)
Positions count from the first letter of the chain named.

T1: siglec 5 expressed on HEK293 cells (UniProt O15389 17-551, limits assumed)
T1 construct: whole, on cells; also called Siglec-6 family member
T1 sequence (looked up): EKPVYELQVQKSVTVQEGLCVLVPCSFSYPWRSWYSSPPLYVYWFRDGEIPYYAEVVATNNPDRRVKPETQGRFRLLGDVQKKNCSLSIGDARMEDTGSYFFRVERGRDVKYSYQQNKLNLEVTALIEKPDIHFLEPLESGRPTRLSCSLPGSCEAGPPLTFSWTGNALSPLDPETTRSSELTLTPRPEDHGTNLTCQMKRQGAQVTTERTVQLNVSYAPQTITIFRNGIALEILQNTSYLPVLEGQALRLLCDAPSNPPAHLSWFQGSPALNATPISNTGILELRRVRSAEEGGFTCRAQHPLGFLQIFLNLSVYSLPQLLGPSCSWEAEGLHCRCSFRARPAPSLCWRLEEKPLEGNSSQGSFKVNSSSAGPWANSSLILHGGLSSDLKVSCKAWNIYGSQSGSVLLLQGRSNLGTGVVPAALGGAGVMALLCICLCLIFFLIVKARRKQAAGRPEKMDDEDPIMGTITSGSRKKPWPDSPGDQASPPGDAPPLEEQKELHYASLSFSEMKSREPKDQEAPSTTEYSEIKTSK

B1: hRND-2 (antibody, human IgG1, kappa, V domains shown)
VH: QVQLVQSGAEVKKPGASVKVSCKASGYAFTSYWMHWVRQAPGQRLEWMGEIYPTNGGTTYAQKFQGRVTMTVDKSTSTAYMELSRLRSDDTAVYYCTIEDFYAMDYWGQGTTVTVSS
VL: DIVMTQTPLSLSVTPGQPASISCKSSQSLLDSDGKTSLNWLLQKPGQSPQRLIYLVSKLDSGVPDRFSGSGSGTDFTLKISRVEAEDVGVYYCWQGTHFPYTFGQGTKLEIKR
notes: also called humanized RND-2; hRND-H2 / hRND-L3; copies: 2 + 2
B2: hRND-3 (antibody, human IgG1, kappa, V domains shown)
VH: B1 VH with V20L, M48I, V68A, M70L
VL: B1 VL
notes: also called humanized RND-3; hRND-H3 / hRND-L3; copies: 2 + 2
B3: hRND-5 (antibody, human IgG1, kappa, V domains shown)
VH: B1 VH with V20L, M48I, A61N, Q62E, Q65K, G66R, V68A, M70L
VL: B1 VL
notes: also called humanized RND-5; hRND-H3b / hRND-L3; copies: 2 + 2
B4: hRND-4 (antibody, human IgG1, kappa, V domains shown)
VH: B1 VH with A61N, Q62E, Q65K, G66R
VL: B1 VL
notes: also called humanized RND-4; hRND-H2b / hRND-L3; copies: 2 + 2

The binders below were run against T1, siglec 5 expressed on HEK293 cells (assay: flow cytometry on HEK293 cells expressing the target).
Experimental: Cultured HEK293 cells expressing human siglec-6, cynomolgus siglec-6, or siglec 6 family members were resuspended in FACS Blocking Buffer (PBS+10% normal human serum) for 30 minutes. Following washing, cells were incubated with siglec-6 antibodies in FACS Buffer (PBS+0.5% bovine serum albumin+0.09% sodium azide) and incubated at 4° C. for 30 minutes, washed and incubated with PE-labeled anti-human secondary antibody. Cells were incubated at 4° C. for 30 minutes in the dark. Following washing, cytofluorimetric analysis was conducted using a BD FACS Symphony A3 (BD Biosciences). Cells were sorted by scatter properties and separated for single cell analysis using side scatter width vs side scatter area. Antibody binding to cells was quantitated by measuring fluorescent emissions of excitation wavelength of 561 nm using a 586/15 nm filter. Data analysis was performed using FlowJo Software.

| binding result | Binder |
| --- | --- |
| no binding | B1 |
| no binding | B2 |
| no binding | B3 |
| no binding | B4 |

Each binder was assayed against T2, Human siglec-6 (BLI analyte) (human, UniProt O43699 27-347, limits assumed) (assay: BLI (Octet), antibody on capture sensor).
T2 construct: also called human siglect-6
T2 sequence (O43699 27-347 limits assumed): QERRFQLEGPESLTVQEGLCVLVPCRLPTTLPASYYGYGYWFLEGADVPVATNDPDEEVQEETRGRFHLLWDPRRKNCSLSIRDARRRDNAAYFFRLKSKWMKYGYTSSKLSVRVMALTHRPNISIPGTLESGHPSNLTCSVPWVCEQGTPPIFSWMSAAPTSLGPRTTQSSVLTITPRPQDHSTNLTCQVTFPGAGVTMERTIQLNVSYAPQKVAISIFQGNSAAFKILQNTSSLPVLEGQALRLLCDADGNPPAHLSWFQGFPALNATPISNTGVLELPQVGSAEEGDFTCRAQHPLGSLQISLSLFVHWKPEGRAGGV
Experimental: Further, binding affinities of siglec-6 antibodies to human siglec-6 were measured by […] using an Octect instrument. Briefly, capture sensors were loaded with test antibodies with 3-fold dilutions. The association and dissociation rates to were determined and used to calculate the equilibrium dissociation constant KD (Table 6).

| Kd | Binder |
| --- | --- |
| 170 pM | B1 |
| 137 pM | B2 |
| 166 pM | B3 |
| 315 pM | B4 |
